Test: soluble on expression in E. coli; label from the status in PepcDB or PDB records

Soluble on expression in E. coli, soluble:
MAEQSDEAVKYYTLEEIQKHNHSKSTWLILHHKVYDLTKFLEEHPGGEEVLREQAGGDATENFEDVGHSTDAREMSKTFIIGELHPDDRPKLNKPPEP
MAETKIVVGPQPFSVGEEYPWLAERDEDGAVVTFTGKVRNHNLGDSVNALTLEHYPGMTEKALAEIVDEARNRWPLGRVTVIHRIGELWPGDEIVFVGVTSAHRSSAFEAGQFIMDYLKTRAPFWKREATPEGDRWVEARESDQQAAKRW
MAEVITVKQTNMENIYECEFNDGSFRLCTRNLVPNFNVYGERLIKYEGVEYREWNAFRSKLAGAILKGLKTNPIRKGTKVLYLGAASGTTISHVSDIIELNGKAYGVEFSPRVVRELLLVAQRRPNIFPLLADARFPQSYKSVVENVDVLYVDIAQPDQTDIAIYNAKFFLKVNGDMLLVIKARSIDVTKDPKEIYKTEVEKLENSNFETIQIINLDPYDKDHAIVLSKYKG
MAFPAGFGWAAATAAYQVEGGWDADGKGPCVWDTFTHQGGERVFKNQTGDVACGSYTLWEEDLKCIKQLGLTHYRFSLSWSRLLPDGTTGFINQKGIDYYNKIIDDLLKNGVTPIVTLYHFDLPQTLEDQGGWLSEAIIESFDKYAQFCFSTFGDRVKQWITINEANVLSVMSYDLGMFPPGIPHFGTGGYQAAHNLIKAHARSWHSYDSLFRKKQKGMVSLSLFAVWLEPADPNSVSDQEAAKRAITFHLDLFAKPIFIDGDYPEVVKSQIASMSQKQGYPSSRLPEFTEEEKKMIKGTADFFAVQYYTTRLIKYQENKKGELGILQDAEIEFFPDPSWKNVDWIYVVPWGVCKLLKYIKDTYNNPVIYITENGFPQSDPAPLDDTQRWEYFRQTFQELFKAIQLDKVNLQVYCAWSLLDNFEWNQGYSSRFGLFHVDFEDPARPRVPYTSAKEYAKIIRNNGLEAHL
MAFVPPQAGYDRAITVFSPDGRLFQVNYAREAVKRGATAVGVKCNEGVVLAVEKRITSRLIEPESYEKIFQIDDHIAAASSGIIADARVLVNRARLEAQIHRLTYGEPAPLAVIVKKICDLKQMHTQYGGVRPFGAALLMAGVNEKPELYETDPSGAYFAWKAVAIGSGRNTAMAIFEEKYKDDMSLEEAIKLAIFALAKTMEKPSAENIEVAIITVKDKKFRKLSREEIEKYLNEVMKEVEEEEVKEKEEDYSELDSHY
MAGDPMPKNKILIYLLSTTLVLPTLVSPTAYADTPQKDTTAKTTSHDSKKSNDDETSKDTTSKDIDKADNNNTSNQDNNDKKFKTIDDSTSDSNNIIDFIYKNLPQTNINQLLTKNKYDDNYSLTTLIQNLFNLNSDISDYEQPRNGEKSTNDSNKNSDNSIKNDTDTQSSKQDKADNQKAPKSNNTKPSTSNKQPNSPKPTQPNQSNSQPASDDKANQKSSSKDNQSMSDSALDSILDQYSEDAKKTQKDYASQSKKDKNEKSNTKNPQLPTQDELKHKSKPAQSFNNDVNQKDTRATSLFETDPSISNNDDSGQFNVVDSKDTRQFVKSIAKDAHRIGQDNDIYASVMIAQAILESDSGRSALAKSPNHNLFGIKGAFEGNSVPFNTLEADGNKLYSINAGFRKYPSTKESLKDYSDLIKNGIDGNRTIYKPTWKSEADSYKDATSHLSKTYATDPNYAKKLNSIIKHYQLTQFDDERMPDLDKYERSIKDYDDSSDEFKPFREVSDSMPYPHGQCTWYVYNRMKQFGTSISGDLGDAHNWNNRAQYRDYQVSHTPKRHAAVVFEAGQFGADQHYGHVAFVEKVNSDGSIVISESNVKGLGIISHRTINAAAAEELSYITGKLEHHHHHH
MAGDPMTPTQNVPEDRIQIGQLRSAYGLNGWLWVYSNTEPMSNMFDYLPWFIETKAGWQTVDVKRWKPHGKGLVVSLKNVSDRNAAESLIGSTIWVAKSQLPKTDVDEYYWSDLKGLTVLGLDEEEQEVNLGQIHELFETGANDVMVVRATADSVDAEERMIPWHKDVVQRVDLEAGRIYVNWGVDYLEHHHHHH
MAGNFDSEERSSWYWGRLSRQEAVALLQGQRHGVFLVRDSSTSPGDYVLSVSENSRVSHYIINSSGPRPPVPPSPAQPPPGVSPSRLRIGDQEFDSLPALLEFYKIHYLDTTTLIEPVSRSRQGSGVILRQEEAEYVRALFDFNGNDEEDLPFKKGDILRIRDKPEEQWWNAEDSEGKRGMIPVPYVEKYRPASASVSALIGGNQEGSHPQPLGGPEPGPYAQPSVNTPLPNLQNGPIYARVIQKRVPNAYDKTALALEVGELVKVTKINVSGQWEGECNGKRGHFPFTHVRLLDQQNPEEDFS
MAGYGAKGIRKVGAFRSGLEDKVSKQLESKGIKFEYEEWKVPYVIPASNHTYTPDFLLPNGIFVETAGLWESDDRKKHLLIREQHPELDIRIVFSSSRTKLYKGSPTSYGEFCEKHGIKFADKLIPAEWIKEPKKEVPFDRLKRKGGKK

Soluble on expression in E. coli, not soluble:
MAENIPLRVQFKRMKAAEWASSDVVLLEGEIGFETDTGFAKFGDGQNTFSKLKYLTGPKGPKGDTGLQGKTGGTGSRGPAGKPGTTDYDQLQNKPDLGAFAQKEETNSKITKLESSKADKNAVYLKAESNAKLDEKLNLKGGVMTGQLQFKPNSGIKPSSSVGGAINIDMSKSEGAAMVMYTNKDTTDGPLMILRSNKDTFDQSVQFVDYKGTTNAVNIVMRQPTTPNFSSALNITSANEGGSAMQIRGVEKALGTLKITHENPSVDKEYDKNAAALSIDIVKKQKGGKGTAAQGIYINSTSGTTGKLLRIRNLNDDKFYVKPDGGFYAKETSQIDGNLKLKDPIANDHAATKAYVDGEVEKLKALLAAKQM
MAESYEEWKSFALKLDEETGAQEWKFDNSSPYFDAELISYRYTLLKRYRQQHRTLDLIYLLKEGLTYDIANIGHPMLFAATHVGTKKLIEDYIEEVSQSLAYIASSECITFQRKEKIEFFENCEKAYGQPALMFSGGATLGLFHTGVCKALIEQDLMPKVLSGSSAGAIMTGMLGISASEDIQNLLNGEQFFSDAFHFRKLRELIKGNGGIADVHYLKKFLIENLGDLTFEEAFKKSGLNINVAVAPYDATENPRIMNAIMTPNVLVWSAVLASCAVPVLFPPVRLTSKRYDGEHTPYMANTKWVDGSVRSDFPQERMARLYNLNYTIASQVNPHVVPFMQDDARRFRKDVLSWPERILRRQGKVLSMGLMDFTRQRLGAISPVRRLLDHGYGVVGQRYYGDVNIIAKYSLKHYAYTLQNPRPHLFKRLQREGERATWPKISSIETHARIGKTIQHCLEVLRFEEKKLEHHHHHH
MAFEGLSERLQATMQKMRGKGKLTEADIKIMMREVRLALLEADVNFKVVKEFIKTVSERALGSDVMQSLTPGQQVIKIVQDELTQLMGGENTSINMSNKPPTVVMMVGLQGAGKTTTAGKLALLMRKKYNKKPMLVAADIYRPAAINQLQTVGKQIDIPVYSEGDQVKPQQIVTNALKHAKEEHLDFVIIDTAGRLHIDEALMNELKEVKDIAKPNEIMLVVDSMTGQDAVNVAESFDDQLDVTGVTLTKLDGDTRGGAALSIRSVTQKPIKFVGMSEKLDGLELFHPERMASRILGMGDVLSLIEKAQQDVDQEKAKDLEKKMRESSFTLDDFLEQLDQVKNLGPLDDIMKMIPGMNKMKGLDKLNMSEKQIDHIKAIIQSMTPAERNNPDTLNVSRKKRIAKGSGRSLQEVNRLMKQFNDMKKMMKQFTGGGKGKKGKRNQMQNMLKGMNLPF
MAFNTRANAEKYLATCYNFVPAAANLDHNSGLICGGEMWYLKPESHYYKNITSFNIARGMQNSNDPLLNYWDGGQGGYNIFRGIHECNIFIDNIDRVPDMRMEEKNKWKAEVMTLKAYYIYYLMLHYGPIPLLKENISVEADLDMMQLERETINDIVTYTTDLLDEAMNIPSGLTFNVTSPRTELGRITLPIAKAIKAKLLILAASPLFNGNTMYAEFVNSEGIPFFDQEYKKEKWEAAAAACLDAINTAHEAGASLYKFDEKLNYTPSSTLQQELTLRNTITGRFNSEIIWALGSNATDGIQNLCQAHLTSYSLGNRMIRSCSQLVPSLEIVEQFYTANGVPMDEDKDYEYENRYKLTTTPEDDPIHFTPNYTTIKMHLNREPRFYAYIGFDGGKWFSIECCNDNETSSYPIKSKKGDIAGVSDELYSPTGYFTKKLVSYQNVNTSATNINYVYSFPIIRLSDLYLLYAEALNELNETPTTDVYYYVQQVRNKAGLDEGGSLVNTWRNHSNRPDKPTTQRGMREIIQKERMIELAFEGHRYHDVRRWKLGSTYLNTQIKGWSVLEQDPEYFYNVRVLFTRKFMPRDYLWPIKTNSINRNPKLVQNPQW
MAGAGGQRNSEHVLCDACYFEEFDLVDAPDTIQVRVCSRCGAVHKGNRWVDIGAEDYTDIAVEQVSEALGIHVDAQSVAWQVAPEQLDKNNIRMHAEFSGVIRGTPVTEEVTVPVRISRQTCKRCGKIAGGSFASIVQVRADGRDPTDDERERAEEIAQEYVAAREETGDRNAFITETKSVDDGLDMKISTNQMGLGIAKRITAQLGGSYSDSRRLISEDEDGQELYRMTYAVRLPRYRQGEVIDPEDGDGPVLVRSVQGNLKGVRLATGEDYEASFEAGETPDARRLGFREDGQQTTLVAIEDERAVQVLDPETFESKTVPRPDYLDIDADEVPVLKSHAGLHILPAADADTDELEHHHHHH
MAGDPMTYRDFIGRLKENGKLVEIQQPVSPIFEASRIAKKTKGPVLFHNVSGSKVIMNLLGSRDELSSMLGVPKEEIIKKLSEVSPEGEVRLVPGSPTLEVIESEVDLTKLPILTHFEKDGAPYITAGIVVSEYEGVMNASIHRLMLVGKDKLAARLVPPRHTYLLHKKAAEKGETLPVAIVLGCDPTIIYATSTRVPAGKEFEYAAALRGTPVEVFECSNGIKVPHSEIILEGYIDTKERVDEGPFVDITGTYDMVRKEPVIHITRIIHRKDPIYHGILPAGPEHLLMMGVPYEPRIYRAVGEVTTVKNVVLTEGGCCYLHAVVQIEKQTEGDAKNAIMAAFAAHTSLKHVVVVDEDINIFDPNDVEFAIATRVKGDMDILTITNVRGSSLDPRGASDGTTTKVGIDATKVLIEKENFERAIIPEELEHHHHHH
MAGEEINEDYPVEIHEYLSAFENSIGAVDEMLKTMMSVSRNELLQKLDPLEQAKVDLVSAYTLNSMFWVYLATQGVNPKEHPVKQELERIRVYMNRVKEITDKKKAGKLDRGAASRFVKNALWEPKSKNASKVANKGKSKS
MAGYDVVVVGGGHAGLEAAWAAAALGVRVALVTVNPDRIGMMPCNPAVGGPGKSQLVAEVVALGGLMGRAADAAAIHTRVLNRSKGPAVQSLRVQVDRDLYALKAQEILAERPVEVLRGEVAALWVEGGRLLGVRTVDGRTLPAKAVVVAGGTFLSGVVWYGRKSRPAGRQGEPPARFLSQSLKAVGHTLRRFKTGTPPRIRADSVDFGRLEVVPPEVPPGSFTGNPGPHAARLPTWQTRTTERTHRLILENLHLSPLYAGDIQGIGPRYCPSIEDKVVRFADKESHLLFVEPDGLSTTEVYLQGFSSSLPPELQEEMVRSLPGFERAVIQRYAYAVEYDSLDPTELTRGLQSRFLPGLFSAGQVNGTSGYEEAAAQGLLAGLNAARFALGLPEVHLPRESGYIGVLVDDLVGRGTDEPYRMMTSRVELRLLCRADNADERLTPLAVAWGLRPREDLERVEAKYRRVAAELRRLEALRVEGVSGLQWLRRPENTYRALAERFPPPEPLSPEEAYQVEVRAKYAGYIERQERLREKMRDLEAFRIPEGMDFPKVPGLSREAAEKLSRHRPKSLAEAARIPGVRDSDLTALAVHLRRGA
